# In doi:10.1101/2025.11.10.687450, “ALC1 Finds a New Foothold on the Nucleosome’s Super-Groove” (bioRxiv, 2025):
# B1: Amplified in Liver Cancer 1 (ALC1), wild type (enzyme)
# chain: MERAGATSRGGQAPGFLLRLHTEGRAEAARVQEQDLRQWGLTGIHLRSYQLEGVNWLAQRFHCQNGCILGDEMGLGKTCQTIALFIYLAGRLNDEGPFLILCPLSVLSNWKEEMQRFAPGLSCVTYAGDKEERACLQQDLKQESRFHVLLTTYEICLKDASFLKSFPWSVLVVDEAHRLKNQSSLLHKTLSEFSVVFSLLLTGTPIQNSLQELYSLLSFVEPDLFSKEEVGDFIQRYQDIEKESESASELHKLLQPFLLRRVKAEVATELPKKTEVVIYHGMSALQKKYYKAILMKDLDAFENETAKKVKLQNILSQLRKCVDHPYLFDGVEPEPFEVGDHLTEASGKLHLLDKLLAFLYSGGHRVLLFSQMTQMLDILQDYMDYRGYSYERVDGSVRGEERHLAIKNFGQQPIFVFLLSTRAGGVGMNLTAADTVIFVDSDFNPQNDLQAAARAHRIGQNKSVKVIRLIGRDTVEEIVYRKAASKLQLTNMIIEGGHFTLGAQKPAADADLQLSEILKFGLDKLLASEGSTMDEIDLESILGETKDGQWVSDALPAAEGGSRDQEEGKNHMYLFEGKDYSKEPSKEDRKSFEQLVNLQKTLLEKASQEGRSLRNKGSVLIPGLVEGSTKRKRVLSPEELEDRQKKRQEAAAKRRRLIEEKKRQKEEAEHKKKMAWWESNNYQSFCLPSEESEPEDLENGEESSAELDYQDPDATSLKYVSGDVTHPQAGAEDALIVHCVDDSGHWGRGGLFTALEKRSAEPRKIYELAGKMKDLSLGGVLLFPVDDKESRNKGQDLLALIVAQHRDRSNVLSGIKMAALEEGLKKIFLAAKKKKASVHLPRIGHATKGFNWYGTERLIRKHLAARGIPTYIYYFPRSKSAVLHSQSSSSSSRQLVP
# notes: ALC1 (chromatin remodeler), human, UniProt Q86WJ1; wild type; residues 28-874 are modelled in the map; The sample is that of the public dataset EMPIAR-10739; also called WT ALC1
# Target: T1, histone H4 (in the PARylated nucleosome) (UniProt P62799 1-103)
# T1 construct: histone H4 as in the nucleosome m2; The H4 chain of m2, written on its own for the contact with ALC1's C-ATPase lobe; also called H4 tail
# Assay: cryo-EM structure; re-analysis of the public dataset EMPIAR-10739 in CryoSPARC: WT ALC1 with an enzymatically PARylated nucleosome (Widom 601 DNA), sample contained ADP-BeF3; 15,740 particles, global resolution 6.60 Å, domains fitted as rigid bodies
# Details: both partners purified
binder,measurement,value
B1,binding result,binds
